US10357539B2, “Use of peptides that block metadherin-SND1 interaction as treatment for cancer” (THE TRUSTEES OF PRINCETON UNIVERSITY, priority 2014, dated 2019)
Changes are numbered by the printed parent chain. Names may count otherwise. “Also recorded” adds a separate entry of the source.

B1: TPM1: MTDH triple-point mutant D389R, D393R and W394D (protein)
chain: YQWDVSRNQPYIDDEWSGLNGLSSARPNSRDNAPAEEWGNWVDEERASLLKSQEPIPDDQKVSDDDKEKGEGALPTGKSKKKKKKKKKQGEDNSTAQDTEELEKEIREDLPVNTSKTRPKQEKAFSLKTISTSDPAEVLVKNSQPIKTLPPATSTEPSVILSKSDSDKSSSQVPPILQETDKSKSNTKQNSVPPSQTKSETSWESPKQIKKKKKARRET
modifications: left off: a dimerising Fc or GST
notes: MTDH triple-point mutant D389R, D393R and W394D
B2: TPM2: MTDH triple-point mutant E399R, E400R and W401D (protein)
chain: B1 chain with R26D, R30D, D31W, E36R, E37R, W38D
modifications: left off: a dimerising Fc or GST
notes: MTDH triple-point mutant E399R, E400R and W401D

Columns and labels:
MTDH-SND1 interaction = molecular target: T1, MTDH-SND1 interaction (Homo sapiens, UniProt Q7KZF4); test: Immunoprecipitation assay: elution or co-incubation with MTDH peptides, western blot; format: biochemical; details: 50 uM of peptides; IP of HA-SND1 from 293T (HA-SND1 + MYC-MTDH) and of endogenous SND1 from MDA-MB-231
T1 construct: Full-length HA-tagged SND1 was co-expressed with full-length Myc-tagged wild-type (WT) or mutant MTDH in HEK293T cells; expressed in transfected cells; host or cells: 293T
T1 sequence (Q7KZF4 1-910): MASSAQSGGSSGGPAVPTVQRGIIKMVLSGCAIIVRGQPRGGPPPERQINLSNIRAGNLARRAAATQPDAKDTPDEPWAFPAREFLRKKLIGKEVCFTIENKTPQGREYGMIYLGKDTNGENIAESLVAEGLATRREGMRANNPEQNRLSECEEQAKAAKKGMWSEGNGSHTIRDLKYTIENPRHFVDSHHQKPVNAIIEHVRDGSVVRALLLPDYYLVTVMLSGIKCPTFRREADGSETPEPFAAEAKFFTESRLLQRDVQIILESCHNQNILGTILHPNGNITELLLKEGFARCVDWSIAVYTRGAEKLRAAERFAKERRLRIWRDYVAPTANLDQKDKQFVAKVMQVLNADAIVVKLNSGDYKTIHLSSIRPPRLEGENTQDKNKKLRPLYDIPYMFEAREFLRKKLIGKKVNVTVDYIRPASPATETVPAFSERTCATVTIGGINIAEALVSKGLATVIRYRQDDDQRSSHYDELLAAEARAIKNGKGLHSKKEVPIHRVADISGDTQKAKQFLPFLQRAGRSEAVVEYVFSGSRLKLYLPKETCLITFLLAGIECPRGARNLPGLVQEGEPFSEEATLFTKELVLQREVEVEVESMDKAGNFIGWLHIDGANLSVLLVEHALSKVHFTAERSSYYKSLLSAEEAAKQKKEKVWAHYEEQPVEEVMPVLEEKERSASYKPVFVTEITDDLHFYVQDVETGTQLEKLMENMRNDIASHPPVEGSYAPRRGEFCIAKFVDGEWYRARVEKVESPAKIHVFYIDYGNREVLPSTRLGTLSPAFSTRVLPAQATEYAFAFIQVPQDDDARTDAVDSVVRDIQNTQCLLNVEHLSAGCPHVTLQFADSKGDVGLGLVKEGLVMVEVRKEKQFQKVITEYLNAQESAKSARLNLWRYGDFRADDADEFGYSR
Procedure: 293T cells co-transfected with HA-SND1 and MYC-MTDH. After 48 hr cells were collected and subjected to IP assay. (FIG. 26A, FIG. 26B) Cell lysate was incubated with anti-HA antibody or IgG overnight followed by 2 hr incubation with Protein A/G beads to pull down HA-SND1 protein. The beads was washed with lysis buffer and split into 5 fractions. Each fraction was eluted with buffer or indicated peptides for 30 min. The elution fractions and beads were collected for WB. (FIG. 26C, FIG. 26D) Cell lyaste was split into 6 fractions, one of them was incubated with IgG and the rest were incubated with anti-HA antibody plus either buffer or indicated peptides. After 24 hr, the lysate was incubated with Protein A/G beads then the beads were washed in wash buffer.
Breast cancer cells MDA-MB231 were collected and subjected to IP assay. (FIG. 27A) Cell lysate was incubated with anti-SND1 antibody or IgG overnight followed by 2 hr incubation with Protein A/G beads to pull down endogenous SND1 protein. The beads were washed with lysis buffer and split into 5 fractions. Each fraction was eluted with buffer or indicated peptides for 30 min. The elution fractions and beads were collected for WB. (FIG. 27B) Cell lyaste was split into 5 fractions, and incubated with anti-SND1 antibody plus either buffer or indicated peptides. After 24 hr, the lysate was incubated with Protein A/G beads then the beads were washed in wash buffer.
293 T cells were co-transfected with HA-SND1 and MYC-MTDH. After 48 hours, the cells were collected and subject to immunoprecipitation assay. Cell lysate was incubated with anti-HA antibody or IgG overnight followed by a two hour incubation with Protein A/G beads to pull down HA-SND1 protein. The beads were washed with lysis buffer and split into five fractions. Each fraction was eluted with buffer or indicated peptides (i.e., Peptide—wt (PNSDWNAPAEEWGNW, SEQ ID NO: 16); Peptide-394A (PNSDANAPAEEWGNW, SEQ ID NO: 17); Peptide-401A (PNSDWNAPAEEAGNW, SEQ ID NO: 18) and Peptide-MT (PNSDANAPAEEAGNW, SEQ ID NO: 19) for 30 minutes.
The elution fractions and beads were collected for western blot. (FIGS. 26C and 26D) Cell lyaste was split into 6 fractions. One of the fractions was incubated with IgG and the rest were incubated with anti-HA antibody plus either buffer or indicated peptides. After 24 hours, the lysate was incubated with Protein A/G beads then the beads was washed followed by wash buffer. 50 uM of peptides was used in all the assays.
The interaction interruption effects was confirmed by endogenous immunoprecipitation (IP) of a breast cancer cell line. Briefly, cell lysates from the breast cancer cell line MDA-MB-231 were collected and subjected to IP assay. […]

SND1 [1] = molecular target: T2, SND1 (Homo sapiens, UniProt Q7KZF4); test: GST-mediated pull-down of SND1 by GST-tagged MTDH fragments and mutants; format: binding; details: His6-SND1ΔC (1-339); Coomassie blue staining
T2 construct: 15 μg of His-SND1 (16-339) was added to the resin; made in house; host or cells: E. coli DH5α
T2 sequence (Q7KZF4 1-339): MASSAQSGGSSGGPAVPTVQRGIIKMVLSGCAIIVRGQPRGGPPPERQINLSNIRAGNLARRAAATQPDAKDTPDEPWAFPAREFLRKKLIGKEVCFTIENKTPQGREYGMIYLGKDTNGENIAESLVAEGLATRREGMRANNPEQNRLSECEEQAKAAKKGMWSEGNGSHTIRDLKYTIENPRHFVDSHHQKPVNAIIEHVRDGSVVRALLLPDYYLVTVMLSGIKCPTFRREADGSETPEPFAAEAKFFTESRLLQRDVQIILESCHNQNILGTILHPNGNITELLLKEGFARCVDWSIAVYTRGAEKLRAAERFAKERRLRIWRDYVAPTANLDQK
Method in brief: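 GST-MTDH fragments or mutants (~20 μg) on glutathione resin incubated with 15 μg His-SND1 (16-339) in 25 mM Tris pH 8.0, 150 mM NaCl, 3 mM DTT plus 2 mg/ml BSA. Bound protein resolved by SDS-PAGE, Coomassie-stained; bound SND1 ratio quantified by densitometry over 3 repeats.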

SND1 [2] = molecular target: T3, SND1 (Homo sapiens, UniProt Q7KZF4); test: Co-immunoprecipitation of full-length Myc-MTDH (WT or mutant) and HA-SND1 in HEK293T cells; format: cell-based; details: HEK293T cell lysates, immunoprecipitation and immunoblot
T3 construct: Full-length HA-tagged SND1 was co-expressed with full-length Myc-tagged wild-type (WT) or mutant MTDH in HEK293T cells; expressed in transfected cells; host or cells: HEK293T
T3 sequence (Q7KZF4 1-910): T1 sequence (Q7KZF4 1-910)

AGO2 = molecular target: T4, AGO2 (Homo sapiens, UniProt Q9UKV8); test: Co-immunoprecipitation of Myc-MTDH mutants with AGO2 in HEK293T cells; format: cell-based; details: HEK293T cell lysates, anti-Myc immunoprecipitation
T4 construct: expressed in transfected cells; host or cells: HEK293T
T4 sequence (Q9UKV8 whole entry): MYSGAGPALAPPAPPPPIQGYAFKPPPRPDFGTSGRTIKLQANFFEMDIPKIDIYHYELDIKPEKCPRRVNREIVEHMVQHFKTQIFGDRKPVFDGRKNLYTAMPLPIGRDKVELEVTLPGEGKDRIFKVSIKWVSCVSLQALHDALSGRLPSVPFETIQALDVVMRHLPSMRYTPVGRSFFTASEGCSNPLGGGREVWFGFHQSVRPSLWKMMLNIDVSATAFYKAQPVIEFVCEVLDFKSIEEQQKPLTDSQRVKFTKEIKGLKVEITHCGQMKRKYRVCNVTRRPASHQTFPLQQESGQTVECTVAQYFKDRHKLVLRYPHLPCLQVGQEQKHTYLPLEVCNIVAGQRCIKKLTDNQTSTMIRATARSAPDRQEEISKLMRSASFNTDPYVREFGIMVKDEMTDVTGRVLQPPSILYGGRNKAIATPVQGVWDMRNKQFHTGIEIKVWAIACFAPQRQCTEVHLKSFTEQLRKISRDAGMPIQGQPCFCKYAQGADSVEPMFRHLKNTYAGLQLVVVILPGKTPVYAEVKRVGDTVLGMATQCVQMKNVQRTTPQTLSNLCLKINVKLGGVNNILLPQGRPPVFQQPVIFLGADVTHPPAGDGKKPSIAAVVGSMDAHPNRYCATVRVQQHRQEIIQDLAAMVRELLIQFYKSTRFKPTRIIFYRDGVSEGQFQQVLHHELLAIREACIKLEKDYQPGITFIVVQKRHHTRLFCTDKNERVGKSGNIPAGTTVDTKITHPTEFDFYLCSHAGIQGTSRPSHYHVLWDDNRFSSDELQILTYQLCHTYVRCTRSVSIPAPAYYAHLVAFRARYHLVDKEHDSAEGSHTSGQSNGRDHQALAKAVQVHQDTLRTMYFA
Excerpt: FIGS. 7A-E represents determination of key regions and residues mediating the MTDH-SND1 interaction. (FIG. 7A) Schematics of MTDH fragments and mutants with indicated SND1-binding capability. + indicates binding and − indicates no binding based on results shown below. Two putative nuclear localization signals are residues 432-451 for NLS2 and residues 561-580 for NLS3. In the enlarged view of the minimal binding region 386-407, 9 residues were targeted for mutagenesis in the current study. […] (FIG. 7B) Pulldown of His6-SND1AC by GST-tagged MTDH fragments with indicated boundaries. The bound proteins were examined by SDS-PAGE and visualized by Coomassie blue staining. (FIG. 7C) Pulldown of His6-SND1ΔC by GST-tagged WT or triple mutant MTDH fragments (364-582). For (FIG. 7B) and (FIG. 7C), 1/10 of the His6-SND1ΔC input was shown, and GST alone was used as a negative control. Representative results of 3 independent experiments are shown. (FIG. 7D, FIG. 7E) Lysates from HEK293T cells expressing the indicated ectopic human SND1, AGO2 or MTDH were immunoprecipitated with anti-Myc and immunoblotted with the indicated antibodies. […]

Row | Molecule | block of MTDH-SND1 interaction by peptide (MTDH-SND1 interaction) | SND1-binding of MTDH fragments and triple mutants, in vitro (SND1 [1]) | interaction of full-length MTDH (WT or mutant) with HA-SND1 (SND1 [2]) | interaction of MTDH mutants with AGO2 (AGO2)
1 | PNSDANAPAEEAGNW (listed as Homo sapiens) [double point mutation] | have no effect in interrupting the interaction of MTDH with SND1 |  |  | 
2 | PNSDANAPAEEWGNW (listed as Homo sapiens) [single point mutation W394A] | have no effect in interrupting the interaction of MTDH with SND1 |  |  | 
3 | PNSDWNAPAEEAGNW (listed as Homo sapiens) | reduced the effectiveness of the wild type peptide by half |  |  | 
4 | PNSDWNAPAEEWGNW (listed as Homo sapiens) [wild type MTDH peptide] | can effectively block MTDH-SND1 interaction; also recorded: significant block MTDH-SND1 interaction |  |  | 
5 | B1 |  | could not bind | not | still able to interact with AGO2
6 | B2 |  | could not bind | not | still able to interact with AGO2
